Laboratory results as given in the supplement of paper PMC5998384.

Tests used:
HeLa Kyoto [1] = test: melting temperature (median over replicates), in situ; higher = more thermally stable
HeLa Kyoto [2] = test: solubility change mitosis vs G1/S (difference of NP-40 vs SDS log2 ratios) (log2 ratio difference); higher = more soluble in mitosis
HeLa Kyoto [3] = test: solubility in G1/S (NP-40 vs SDS abundance) (log2 ratio); higher = more soluble; conditions: cell cycle stage: G1/S
HeLa Kyoto [4] = test: thermal stability score vs G1/S (z-score of summed log2 fold changes over temperatures); higher = more thermally stable than in G1/S
[5] = cell cycle stage: early G1 (4.5 h after nocodazole release)
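For melting temperature (median over replicates), in situ in this document: HeLa Kyoto cells synchronized by double thymidine or nocodazole block, proteins quantified by TMT10plex mass spectrometry, three independent biological replicates.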
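For solubility change mitosis vs G1/S (difference of NP-40 vs SDS log2 ratios) in this document: synchronized HeLa Kyoto cells (double thymidine block for G1/S, nocodazole release for mitosis), protein amounts in NP-40 versus SDS lysates quantified by mass spectrometry, three biological replicates.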
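For solubility in G1/S (NP-40 vs SDS abundance) in this document: HeLa Kyoto cells arrested at G1/S by double thymidine block, proteins quantified by TMT10plex mass spectrometry in mild NP-40 versus SDS extracts, three biological replicates.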
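For thermal stability score vs G1/S (z-score of summed log2 fold changes over temperatures) in this document: synchronized HeLa Kyoto cells, proteins quantified by TMT10plex mass spectrometry, three biological replicates, mitosis taken 0.5 h after nocodazole release, G1/S directly after double thymidine block.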

Chain of PPP2R5E (chain, as listed by the source): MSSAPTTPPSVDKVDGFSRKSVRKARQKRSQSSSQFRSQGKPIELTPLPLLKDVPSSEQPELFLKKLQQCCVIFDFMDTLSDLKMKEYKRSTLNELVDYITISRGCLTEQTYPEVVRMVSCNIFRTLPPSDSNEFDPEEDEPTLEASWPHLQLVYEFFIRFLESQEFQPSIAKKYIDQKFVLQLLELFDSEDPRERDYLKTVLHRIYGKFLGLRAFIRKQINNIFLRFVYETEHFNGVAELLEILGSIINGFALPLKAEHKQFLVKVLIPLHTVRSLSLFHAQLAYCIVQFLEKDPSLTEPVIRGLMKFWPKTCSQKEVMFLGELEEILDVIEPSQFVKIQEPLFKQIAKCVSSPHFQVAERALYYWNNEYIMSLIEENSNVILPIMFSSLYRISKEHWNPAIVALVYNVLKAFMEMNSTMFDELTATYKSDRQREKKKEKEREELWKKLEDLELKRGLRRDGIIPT

| Substance | melting temperature (HeLa Kyoto [1]; cell cycle stage: G1/S) | melting temperature (HeLa Kyoto [1]; cell cycle stage: mitosis) | solubility change mitosis (log2) (HeLa Kyoto [2]) | solubility in G1/S (log2) (HeLa Kyoto [3]) | thermal stability score (HeLa Kyoto [4]; [5]) | thermal stability score (HeLa Kyoto [4]; cell cycle stage: mitosis) |
| --- | --- | --- | --- | --- | --- | --- |
| MEPLSHRGLPRLSWIDTLYSNFSYGTDEYDGEGNEEQKGPPEGSETMPYIDESPTMSPQLSARSQGGGDGVSPTPPEGLAPGVEAGKGLEMRKLVLSGFLASEEIYINQLEALLLPMKPLKATATTSQPVLTIQQIETIFYKIQDIYEIHKEFYDNLCPKVQQWDSQVTMGHLFQKLASQLGVYKAFVDNYKVALETAEKCSQSNNQFQKISEELKVKGPKDSKDSHTSVTMEALLYKPIDRVTRSTLVLHDLLKHTPVDHPDYPLLQDALRISQNFLSSINEDIDPRRTAVTTPKGETRQLVKDGFLVEVSESSRKLRHVFLFTDVLLCAKLKKTSAGKHQQYDCKWYIPLADLVFPSPEESEASPQVHPFPDHELEDMKMKISALKSEIQKEKANKGQSRAIERLKKKMFENEFLLLLNSPTIPFRIHNRNGKSYLFLLSSDYERSEWREAIQKLQKKDLQAFVLSSVELQVLTGSCFKLRTVHNIPVTSNKDDDESPGLYGFLHVIVHSAKGFKQSANLYCTLEVDSFGYFVSKAKTRVFRDTAEPKWDEEFEIELEGSQSLRILCYEKCYDKTKVNKDNNEIVDKIMGKGQIQLDPQTVETKNWHTDVIEMNGIKVEFSMKFTSRDMSLKRTPSKKQTGVFGVKISVVTKRERSKVPYIVRQCVEEVEKRGIEEVGIYRISGVATDIQALKAVFDANNKDILLMLSDMDINAIAGTLKLYFRELPEPLLTDRLYPAFMEGIALSDPAAKENCMMHLLRSLPDPNLITFLFLLEHLKRVAEKEPINKMSLHNLATVFGPTLLRPSEVESKAHLTSAADIWSHDVMAQVQVLLYYLQHPPISFAELKRNTLYFSTDV [ABR] | 48.8 °C | 49.1 °C | -0.111 | -0.0712 | 0.864 | 1.73 |
| MMNKLYIGNLSPAVTADDLRQLFGDRKLPLAGQVLLKSGYAFVDYPDQNWAIRAIETLSGKVELHGKIMEVDYSVSKKLRSRKIQIRNIPPHLQWEVLDGLLAQYGTVENVEQVNTDTETAVVNVTYATREEAKIAMEKLSGHQFENYSFKISYIPDEEVSSPSPPQRAQRGDHSSREQGHAPGGTSQARQIDFPLRILVPTQFVGAIIGKEGLTIKNITKQTQSRVDIHRKENSGAAEKPVTIHATPEGTSEACRMILEIMQKEADETKLAEEIPLKILAHNGLVGRLIGKEGRNLKKIEHETGTKITISSLQDLSIYNPERTITVKGTVEACASAEIEIMKKLREAFENDMLAVNQQANLIPGLNLSALGIFSTGLSVLSPPAGPRGAPPAAPYHPFTTHSGYFSSLYPHHQFGPFPHHHSYPEQEIVNLFIPTQAVGAIIGKKGAHIKQLARFAGASIKIAPAEGPDVSERMVIITGPPEAQFKAQGRIFGKLKEENFFNPKEEVKLEAHIRVPSSTAGRVIGKGGKTVNELQNLTSAEVIVPRDQTPDENEEVIVRIIGHFFASQTAQRKIREIVQQVKQQEQKYPQGVASQRSK [IGF2BP2] | 48.7 °C | 47.8 °C | 0.0614 | -0.0149 | -0.347 | -0.134 |
| MRPRKAFLLLLLLGLVQLLAVAGAEGPDEDSSNRENAIEDEEEEEEEDDDEEEDDLEVKEENGVLVLNDANFDNFVADKDTVLLEFYAPWCGHCKQFAPEYEKIANILKDKDPPIPVAKIDATSASVLASRFDVSGYPTIKILKKGQAVDYEGSRTQEEIVAKVREVSQPDWTPPPEVTLVLTKENFDEVVNDADIILVEFYAPWCGHCKKLAPEYEKAAKELSKRSPPIPLAKVDATAETDLAKRFDVSGYPTLKIFRKGRPYDYNGPREKYGIVDYMIEQSGPPSKEILTLKQVQEFLKDGDDVIIIGVFKGESDPAYQQYQDAANNLREDYKFHHTFSTEIAKFLKVSQGQLVVMQPEKFQSKYEPRSHMMDVQGSTQDSAIKDFVLKYALPLVGHRKVSNDAKRYTRRPLVVVYYSVDFSFDYRAATQFWRSKVLEVAKDFPEYTFAIADEEDYAGEVKDLGLSESGEDVNAAILDESGKKFAMEPEEFDSDTLREFVTAFKKGKLKPVIKSQPVPKNNKGPVKVVVGKTFDSIVMDPKKDVLIEFYAPWCGHCKQLEPVYNSLAKKYKGQKGLVIAKMDATANDVPSDRYKVEGFPTIYFAPSGDKKNPVKFEGGDRDLEHLSKFIEEHATKLSRTKEEL [PDIA4] | 53.9 °C | 54.4 °C | -0.0655 | 0.264 | 3.99 | 4.66 |
| MEEEGLECPNSSSEKRYFPESLDSSDGDEEEVLACEDLELNPFDGLPYSSRYYKLLKEREDLPIWKEKYSFMENLLQNQIVIVSGDAKCGKSAQVPQWCAEYCLSIHYQHGGVICTQVHKQTVVQLALRVADEMDVNIGHEVGYVIPFENCCTNETILRYCTDDMLQREMMSNPFLGSYGVIILDDIHERSIATDVLLGLLKDVLLARPELKLIINSSPHLISKLNSYYGNVPVIEVKNKHPVEVVYLSEAQKDSFESILRLIFEIHHSGEKGDIVVFLACEQDIEKVCETVYQGSNLNPDLGELVVVPLYPKEKCSLFKPLDETEKRCQVYQRRVVLTTSSGEFLIWSNSVRFVIDVGVERRKVYNPRIRANSLVMQPISQSQAEIRKQILGSSSSGKFFCLYTEEFASKDMTPLKPAEMQEANLTSMVLFMKRIDIAGLGHCDFMNRPAPESLMQALEDLDYLAALDNDGNLSEFGIIMSEFPLDPQLSKSILASCEFDCVDEVLTIAAMVTAPNCFSHVPHGAEEAALTCWKTFLHPEGDHFTLISIYKAYQDTTLNSSSEYCVEKWCRDYFLNCSALRMADVIRAELLEIIKRIELPYAEPAFGSKENTLNIKKALLSGYFMQIARDVDGSGNYLMLTHKQVAQLHPLSGYSITKKMPEWVLFHKFSISENNYIRITSEISPELFMQLVPQYYFSNLPPSESKDILQQVVDHLSPVSTMNKEQQMCETCPETEQRCTLQ [DHX32] | 49.4 °C | 50 °C | -0.152 | -0.155 | -0.0722 | 0.258 |
| PPP2R5E | 49.9 °C | 49.7 °C | -0.171 | -0.065 | 0.446 | 0.409 |
| MGKSRTKRFKRPQFSPTGDCQAEAAAAANGTGGEEDDGPAAELLEKLQHPSAEVRECACAGLARLVQQRPALPGLARRDAVRRLGPLLLDPSLAVRETAAGALRNLSACGGFEVCDDMVTKDIMTPLVALLKECSAGLDSNEMSLQEKKDQNRNSIENIANETVNVLWNICECSSRAVSIFNKEGCLEIVLKYLSRFPTNVDLAISVAYCLQTVTEDNPELLKSFSATALNMLESALLSPVSSMESLLLKTLVAGTIWNLKDIIPCKSQAEIINALLKILSEVLGMDAGEMVIQMKEAETQRLKTAAEAEEILENTNGDDLIEDDEMEGISHKRRVRRKTFVSDLLPPTDKELRETIALLTAQQTALEIIVNMCCNEDPSDDEWEELSSSDESDAFMENSFSECGGQLFSPLCLSHEVHTALTNYLIPKKIFEKTAFPNSIAVDLCSRNPTWKPLIRKMNTIQCRALFCLQSLVSLLDVEHLGGAAALQTLAQHLSQLLFSQPDFAKHVDFLEAISSALRALLQTMASKNISQCMTPDQLMTLCKAGIHSSNVGVRVNVVSILGITGSVLAKEDGTLETLKNIGCFLLEVTTKDPSLVVAGEALDALFDVFADGKEAERASIQIKLLSALKEFQPVFKMKIRKEGRGNYSTDQLCVLDNVKMNLRRFIAYQETVEKRLTS [HEATR3] | 48.7 °C | 48.8 °C | -0.138 | 0.0745 | 1.72 | 3.45 |
| MFVPCGESAPDLAGFTLLMPAVSVGNVGQLAMDLIISTLNMSKIGYFYTDCLVPMVGNNPYATTEGNSTELSINAEVYSLPSRKLVALQLRSIFIKYKSKPFCEKLLSWVKSSGCARVIVLSSSHSYQRNDLQLRSTPFRYLLTPSMQKSVQNKIKSLNWEEMEKSRCIPEIDDSEFCIRIPGGGITKTLYDESCSKEIQMAVLLKFVSEGDNIPDALGLVEYLNEWLQILKPLSDDPTVSASRWKIPSSWRLLFGSGLPPALF [PSMG2] | 54.2 °C | 53.9 °C | -0.0561 | 0.264 | -0.904 | -2.71 |
